Test results reported in paper PMC9482650, “Quantitative fragmentomics allow affinity mapping of interactomes” (Nature Communications, 2022).

T1: DLG3_3, Q92796
T1 sequence (Q92796 374-475, limits assumed, looked up): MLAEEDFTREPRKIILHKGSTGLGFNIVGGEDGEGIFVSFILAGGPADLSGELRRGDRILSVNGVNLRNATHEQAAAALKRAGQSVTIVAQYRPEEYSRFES

T2: NHERF3_1, Q5T2W1
T2 sequence (Q5T2W1 4-100, limits assumed, looked up): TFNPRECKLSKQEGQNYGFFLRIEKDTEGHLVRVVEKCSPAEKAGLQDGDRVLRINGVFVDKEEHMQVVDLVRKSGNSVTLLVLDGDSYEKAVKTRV

T3: TIAM2, Q8IVF5
T3 sequence (Q8IVF5 885-986, limits assumed, looked up): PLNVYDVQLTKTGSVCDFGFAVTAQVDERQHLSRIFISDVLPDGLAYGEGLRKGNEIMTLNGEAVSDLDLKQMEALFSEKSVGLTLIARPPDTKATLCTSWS

T4: MPDZ_10, O75970
T4 sequence (O75970 1624-1722, limits assumed, looked up): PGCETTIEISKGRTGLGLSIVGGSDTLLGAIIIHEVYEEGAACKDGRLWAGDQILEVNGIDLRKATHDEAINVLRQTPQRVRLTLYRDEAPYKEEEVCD

T5: PARD3B_1, Q8TEW8
T5 sequence (Q8TEW8 196-299, limits assumed, looked up): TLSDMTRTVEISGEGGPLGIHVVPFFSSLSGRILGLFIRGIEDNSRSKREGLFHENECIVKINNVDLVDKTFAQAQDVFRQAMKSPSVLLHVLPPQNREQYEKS

T6: PDZRN3_1, Q9UPQ7
T6 sequence (Q9UPQ7 244-349, limits assumed, looked up): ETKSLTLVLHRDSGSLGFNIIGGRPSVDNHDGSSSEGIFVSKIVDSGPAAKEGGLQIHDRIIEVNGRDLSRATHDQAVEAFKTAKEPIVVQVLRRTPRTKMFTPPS

T7: APBA2_1, Q99767
T7 sequence (Q99767 563-664, limits assumed, looked up): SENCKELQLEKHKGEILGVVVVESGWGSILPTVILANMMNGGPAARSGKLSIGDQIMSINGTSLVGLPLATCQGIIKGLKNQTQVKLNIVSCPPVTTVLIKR

T8: PTPN13_1, Q12923
T8 sequence (Q12923 1088-1188, limits assumed, looked up): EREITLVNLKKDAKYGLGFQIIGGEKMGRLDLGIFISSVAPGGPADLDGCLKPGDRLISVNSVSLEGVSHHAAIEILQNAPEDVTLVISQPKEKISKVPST

T9: SNTG2, Q9NY99
T9 sequence (Q9NY99 68-166, limits assumed, looked up): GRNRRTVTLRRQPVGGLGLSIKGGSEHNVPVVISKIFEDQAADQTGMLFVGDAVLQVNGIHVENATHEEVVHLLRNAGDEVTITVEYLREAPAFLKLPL

T10: APBA1_2, Q02410
T10 sequence (Q02410 742-832, limits assumed, looked up): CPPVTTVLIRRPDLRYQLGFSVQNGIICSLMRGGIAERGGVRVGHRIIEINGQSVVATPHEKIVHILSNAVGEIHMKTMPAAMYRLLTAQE


Key:
Experiment in all cases: holdup assay
Design in all cases: key: below the threshold = too weak to quantify, mostly under pKd 3.1 to 4
Settings in all cases: plain residues with an end cap or a label only (N-terminal biotin on a linker: ado-ado)
MAGI1_1, Q96QZ7 = target: MAGI1_1, Q96QZ7
Chain of MAGI1_1, Q96QZ7 (Q96QZ7 1-106): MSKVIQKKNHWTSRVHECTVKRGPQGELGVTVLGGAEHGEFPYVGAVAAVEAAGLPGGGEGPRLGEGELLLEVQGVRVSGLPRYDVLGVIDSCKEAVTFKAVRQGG

TJP1_3, Q07157 = target: TJP1_3, Q07157
Chain of TJP1_3, Q07157 (Q07157 416-512): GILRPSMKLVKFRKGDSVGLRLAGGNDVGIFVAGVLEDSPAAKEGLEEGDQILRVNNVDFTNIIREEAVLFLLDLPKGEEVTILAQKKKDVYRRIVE

GRIP2_6, Q9C0E4 = target: GRIP2_6, Q9C0E4
Chain of GRIP2_6, Q9C0E4 (Q9C0E4 648-740): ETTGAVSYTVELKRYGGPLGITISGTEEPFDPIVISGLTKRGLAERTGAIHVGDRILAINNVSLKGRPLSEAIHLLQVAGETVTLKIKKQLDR

FRMPD2_3, Q68DX3 = target: FRMPD2_3, Q68DX3
Chain of FRMPD2_3, Q68DX3 (Q68DX3 1073-1166): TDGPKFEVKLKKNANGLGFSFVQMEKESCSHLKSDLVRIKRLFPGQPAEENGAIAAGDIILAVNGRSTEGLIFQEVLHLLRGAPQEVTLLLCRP

CASK, O14936 = target: CASK, O14936
Chain of CASK, O14936 (O14936 487-570): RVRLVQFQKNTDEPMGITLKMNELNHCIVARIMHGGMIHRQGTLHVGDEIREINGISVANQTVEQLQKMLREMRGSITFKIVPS

FRMPD2_2, Q68DX3 = target: FRMPD2_2, Q68DX3
Chain of FRMPD2_2, Q68DX3 (Q68DX3 944-1038): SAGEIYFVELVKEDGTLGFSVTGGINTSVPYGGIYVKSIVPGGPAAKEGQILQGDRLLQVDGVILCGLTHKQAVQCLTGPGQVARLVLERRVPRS

DLG3_3, Q92796 = target: T1, DLG3_3, Q92796
NHERF3_1, Q5T2W1 = target: T2, NHERF3_1, Q5T2W1
HTRA2, O43464 = target: HTRA2, O43464
Chain of HTRA2, O43464 (O43464 355-458): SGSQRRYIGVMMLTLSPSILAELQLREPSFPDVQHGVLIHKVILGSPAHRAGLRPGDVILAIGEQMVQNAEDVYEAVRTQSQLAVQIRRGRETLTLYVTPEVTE

GRIP2_3, Q9C0E4 = target: GRIP2_3, Q9C0E4
Chain of GRIP2_3, Q9C0E4 (Q9C0E4 238-339): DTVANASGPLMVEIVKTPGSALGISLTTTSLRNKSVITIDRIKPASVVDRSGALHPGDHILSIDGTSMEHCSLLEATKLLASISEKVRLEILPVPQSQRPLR

LNX1_1, Q8TBB1 = target: LNX1_1, Q8TBB1
Chain of LNX1_1, Q8TBB1 (Q8TBB1 261-371): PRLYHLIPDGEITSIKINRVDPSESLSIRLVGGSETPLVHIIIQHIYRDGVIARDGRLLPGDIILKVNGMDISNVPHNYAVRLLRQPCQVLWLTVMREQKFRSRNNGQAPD

Inadl_2, Q8NI35 = target: Inadl_2, Q8NI35
Chain of Inadl_2, Q8NI35 (Q8NI35 238-335): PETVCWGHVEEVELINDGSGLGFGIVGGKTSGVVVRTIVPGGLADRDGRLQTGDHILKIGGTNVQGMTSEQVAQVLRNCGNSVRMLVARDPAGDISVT

TIAM2, Q8IVF5 = target: T3, TIAM2, Q8IVF5
GRIP2_4, Q9C0E4 = target: GRIP2_4, Q9C0E4
Chain of GRIP2_4, Q9C0E4 (Q9C0E4 446-548): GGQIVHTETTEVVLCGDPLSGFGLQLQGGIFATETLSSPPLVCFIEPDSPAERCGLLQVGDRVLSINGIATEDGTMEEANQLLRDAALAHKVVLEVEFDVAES

MPDZ_10, O75970 = target: T4, MPDZ_10, O75970
LAP2, Q96RT1 = target: LAP2, Q96RT1
Chain of LAP2, Q96RT1 (Q96RT1 other isoform, or with tags, fused parts or gaps): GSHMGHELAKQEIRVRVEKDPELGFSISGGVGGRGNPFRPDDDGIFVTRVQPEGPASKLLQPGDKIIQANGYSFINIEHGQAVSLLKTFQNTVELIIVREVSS

LNX1_2, Q8TBB1 = target: LNX1_2, Q8TBB1
Chain of LNX1_2, Q8TBB1 (Q8TBB1 371-470): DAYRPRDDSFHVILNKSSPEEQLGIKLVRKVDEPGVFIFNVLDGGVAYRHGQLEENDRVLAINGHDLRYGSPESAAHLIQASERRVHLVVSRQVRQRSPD

PARD3B_1, Q8TEW8 = target: T5, PARD3B_1, Q8TEW8
GRIP2_5, Q9C0E4 = target: GRIP2_5, Q9C0E4
Chain of GRIP2_5, Q9C0E4 (Q9C0E4 544-642): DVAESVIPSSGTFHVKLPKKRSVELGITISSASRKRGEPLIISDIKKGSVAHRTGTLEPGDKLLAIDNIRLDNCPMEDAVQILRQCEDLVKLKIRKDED

NHERF2_2, Q15599 = target: NHERF2_2, Q15599
Chain of NHERF2_2, Q15599 (Q15599 142-238): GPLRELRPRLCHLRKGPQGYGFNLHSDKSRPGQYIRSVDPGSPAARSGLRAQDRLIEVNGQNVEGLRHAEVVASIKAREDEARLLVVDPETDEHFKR

GORASP1, Q9BQQ3 = target: GORASP1, Q9BQQ3
Chain of GORASP1, Q9BQQ3 (Q9BQQ3 1-208): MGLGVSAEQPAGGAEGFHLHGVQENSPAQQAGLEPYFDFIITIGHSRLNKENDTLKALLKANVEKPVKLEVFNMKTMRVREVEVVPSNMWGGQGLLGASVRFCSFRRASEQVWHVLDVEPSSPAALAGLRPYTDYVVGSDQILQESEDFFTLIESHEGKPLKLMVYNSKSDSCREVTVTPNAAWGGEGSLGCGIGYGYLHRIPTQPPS

PARD3_3, Q8TEW0 = target: PARD3_3, Q8TEW0
Chain of PARD3_3, Q8TEW0 (Q8TEW0 582-685): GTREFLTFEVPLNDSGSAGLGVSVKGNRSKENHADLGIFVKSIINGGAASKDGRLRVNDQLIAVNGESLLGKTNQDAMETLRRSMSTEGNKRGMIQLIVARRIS

PDZRN3_1, Q9UPQ7 = target: T6, PDZRN3_1, Q9UPQ7
APBA2_1, Q99767 = target: T7, APBA2_1, Q99767
PTPN13_1, Q12923 = target: T8, PTPN13_1, Q12923
SNTG2, Q9NY99 = target: T9, SNTG2, Q9NY99
APBA1_2, Q02410 = target: T10, APBA1_2, Q02410

Binder	pKd (MAGI1_1, Q96QZ7)	pKd (TJP1_3, Q07157)	pKd (GRIP2_6, Q9C0E4)	pKd (FRMPD2_3, Q68DX3)	pKd (CASK, O14936)	pKd (FRMPD2_2, Q68DX3)	pKd (DLG3_3, Q92796)	pKd (NHERF3_1, Q5T2W1)	pKd (HTRA2, O43464)	pKd (GRIP2_3, Q9C0E4)	pKd (LNX1_1, Q8TBB1)	pKd (Inadl_2, Q8NI35)	pKd (TIAM2, Q8IVF5)	pKd (GRIP2_4, Q9C0E4)	pKd (MPDZ_10, O75970)	pKd (LAP2, Q96RT1)	pKd (LNX1_2, Q8TBB1)	pKd (PARD3B_1, Q8TEW8)	pKd (GRIP2_5, Q9C0E4)	pKd (NHERF2_2, Q15599)	also measured
AKPSRISTVV [IQSEC2, Q5JU85]	below the threshold	below the threshold	below the threshold	below the threshold	below the threshold	below the threshold	4.18	below the threshold	below the threshold	below the threshold	4.34	below the threshold	3.91	below the threshold	3.57	below the threshold	3.52	below the threshold	below the threshold	below the threshold	pKd (GORASP1, Q9BQQ3): 4.11; pKd (PARD3_3, Q8TEW0): below the threshold; pKd (PDZRN3_1, Q9UPQ7): below the threshold; pKd (APBA2_1, Q99767): below the threshold; pKd (PTPN13_1, Q12923): below the threshold; pKd (SNTG2, Q9NY99): below the threshold; pKd (APBA1_2, Q02410): 3.49
TSQESEDTYL [TBC1D10A, Q9BXI6]	below the threshold	below the threshold	below the threshold	below the threshold	below the threshold	below the threshold	below the threshold	5.69	below the threshold	below the threshold	below the threshold	below the threshold	below the threshold	below the threshold	below the threshold	3.54	below the threshold	4.58	below the threshold	5.52	pKd (GORASP1, Q9BQQ3): below the threshold; pKd (PARD3_3, Q8TEW0): 4.63; pKd (PDZRN3_1, Q9UPQ7): 3.48; pKd (APBA2_1, Q99767): below the threshold; pKd (PTPN13_1, Q12923): below the threshold; pKd (SNTG2, Q9NY99): below the threshold; pKd (APBA1_2, Q02410): below the threshold
DDENIRTSDV [PLEKHA2, Q9HB19]	below the threshold	below the threshold	below the threshold	below the threshold	below the threshold	3.82	below the threshold	below the threshold	below the threshold	below the threshold	4.5	below the threshold	below the threshold	below the threshold	3.85	4.18	below the threshold	below the threshold	below the threshold	below the threshold	pKd (GORASP1, Q9BQQ3): below the threshold; pKd (PARD3_3, Q8TEW0): below the threshold; pKd (PDZRN3_1, Q9UPQ7): below the threshold; pKd (APBA2_1, Q99767): below the threshold; pKd (PTPN13_1, Q12923): below the threshold; pKd (SNTG2, Q9NY99): 4.08; pKd (APBA1_2, Q02410): below the threshold
KKMPSIESDV [GRIN2A, Q12879]	below the threshold	below the threshold	below the threshold	below the threshold	below the threshold	3.78	below the threshold	below the threshold	below the threshold	below the threshold	4.04	below the threshold	3.96	below the threshold	below the threshold	4.6	below the threshold	below the threshold	below the threshold	below the threshold	pKd (GORASP1, Q9BQQ3): below the threshold; pKd (PARD3_3, Q8TEW0): below the threshold; pKd (PDZRN3_1, Q9UPQ7): below the threshold; pKd (APBA2_1, Q99767): below the threshold; pKd (PTPN13_1, Q12923): below the threshold; pKd (SNTG2, Q9NY99): 4.41; pKd (APBA1_2, Q02410): below the threshold
HSGYRLNDYV [CLDN14, O95500]	below the threshold	below the threshold	below the threshold	below the threshold	below the threshold	below the threshold	below the threshold	4.59	3.74	below the threshold	below the threshold	below the threshold	below the threshold	below the threshold	below the threshold	below the threshold	3.61	below the threshold	below the threshold	below the threshold	pKd (GORASP1, Q9BQQ3): 3.75; pKd (PARD3_3, Q8TEW0): 3.83; pKd (PDZRN3_1, Q9UPQ7): below the threshold; pKd (APBA2_1, Q99767): below the threshold; pKd (PTPN13_1, Q12923): below the threshold; pKd (SNTG2, Q9NY99): below the threshold; pKd (APBA1_2, Q02410): 3.84
